Where two headings read alike, the source gives them in different places. Bridge positions count the residues as written; N and C are the ends. Square brackets hold non-standard residues; d marks the D form. Primed or numbered codes have the meaning given here. Ends that are not written are not given here. * marks the point of attachment. Biotin = O=C1N[C@H]2[C@H](CS[C@H]2CCCCC(=O)*)N1; PEG6′ = PEG linker with 6 ethylene glycol units; PEG8′ = PEG linker with 8 ethylene glycol units; Trp(1-Me) = Cn1cc(C[C@H](N)C(=O)O)c2ccccc21; Phe(4-F) = N[C@@H](Cc1ccc(F)cc1)C(=O)O; Me‑Phe = methyl phenylalanine; PEG3′ = not defined here; Ph‑Tyr = phenyl tyrosine; Pra = C#CC[C@H](N)C(=O)O; Az4 = not defined here; Inh = not defined here; Me‑Val = methyl valine
Columns and labels:
[1] = biological target: T1, His-tagged IDO1 human recombinant protein (71182, BPS Biosciences) (human, UniProt P14902 2-403); test: ELISA: biotinylated peptide on NeutrAvidin plate, 6xHis-tagged human IDO1 titrated
T1 construct: Bought His-tagged protein; also called human IDO1; recombinant human IDO1
T1 sequence (P14902 2-403 limits assumed): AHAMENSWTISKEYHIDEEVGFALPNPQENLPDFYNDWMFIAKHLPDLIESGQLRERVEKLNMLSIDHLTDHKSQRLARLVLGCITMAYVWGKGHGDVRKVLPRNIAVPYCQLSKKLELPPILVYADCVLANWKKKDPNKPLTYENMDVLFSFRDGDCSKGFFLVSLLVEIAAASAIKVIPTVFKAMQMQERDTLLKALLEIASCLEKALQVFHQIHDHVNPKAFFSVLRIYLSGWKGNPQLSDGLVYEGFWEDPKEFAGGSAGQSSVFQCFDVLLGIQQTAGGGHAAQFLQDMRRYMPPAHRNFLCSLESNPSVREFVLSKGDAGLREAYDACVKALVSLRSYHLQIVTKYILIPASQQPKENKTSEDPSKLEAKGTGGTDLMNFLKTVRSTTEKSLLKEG
Description: The plate was aspirated and then washed with Wash Buffer (0.05% (v/v) Tween-20 in PBS, 6×). His-tagged IDO1 human recombinant protein (71182, BPS Biosciences) was serially diluted in Wash Buffer (from 200 to 0 nM) and incubated in the designated microwells for 1 h at room temperature. […] (ab49746, Abcam) was prepared at 1:10,000 dilution and added to the microwells for 1 h at room temperature. The plate was aspirated and washed with Wash Buffer (5×). AttoPhos® AP Fluorescent Substrate System (S1000, Promega) was employed to develop the microwells. Using an excitation wavelength of 430 nm, fluorescent emission at 535 nm was recorded by Beckman Coulter DTX880 photometer.

[2] = biological target: T1, His-tagged IDO1 human recombinant …; test: cell-based or functional assay
[3] = biological target: T1, His-tagged IDO1 human recombinant …; test: cell-based or functional assay; remark: listed apart in the source
[4] = biological target: T1, His-tagged IDO1 human recombinant …; test: cell-based or functional assay; remark: listed apart in the source
[5] = biological target: IDO1 in HeLa cells stimulated with IFNγ (UniProt P14902 1-403, limits assumed); test: cell-based or functional assay
Sequence of IDO1 in HeLa cells stimulated with IFNγ (P14902 whole entry): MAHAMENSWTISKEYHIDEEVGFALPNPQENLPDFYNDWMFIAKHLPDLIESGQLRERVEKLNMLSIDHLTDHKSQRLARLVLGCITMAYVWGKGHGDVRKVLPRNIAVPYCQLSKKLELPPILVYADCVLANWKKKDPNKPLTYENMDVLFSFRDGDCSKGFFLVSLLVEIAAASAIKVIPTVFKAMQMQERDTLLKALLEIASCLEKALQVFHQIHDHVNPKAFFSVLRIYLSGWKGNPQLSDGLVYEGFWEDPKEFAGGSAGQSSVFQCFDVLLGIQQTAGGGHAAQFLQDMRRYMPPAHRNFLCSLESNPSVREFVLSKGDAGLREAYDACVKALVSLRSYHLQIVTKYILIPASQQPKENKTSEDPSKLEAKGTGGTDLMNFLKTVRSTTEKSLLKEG

[6] = biological target: T1, His-tagged IDO1 human recombinant …; test: ELISA: biotin-PEG3 macrocycle on NeutrAvidin plate, His-tagged human IDO1 titrated, AP-conjugated anti-6XHis antibody, fluorescence
[7] = biological target: T1, His-tagged IDO1 human recombinant …; test: binding affinity, assay not named

B1: (F-Phe)n(Me-Trp)(Me-Trp)w macrocycle (peptide)
peptide: [Pra][Phe(4-F)][dN][Trp(1-Me)][Trp(1-Me)][dW]-Az4
modifications: triazole N-C; reading uncertain; also: biotinylated for ELISA, site not given here, printed as (F-Phe)n(Me-Trp)(Me-Trp)w
EC50 [1]: 100 nM

B2: Inh-PEG4-wyry (other)
peptide: [Pra][dW][dY][dR][dY]-Az4
modifications: triazole N-C; numbers in words are those of the source; reading uncertain; also: small molecule Inh joined via PEG4 linker, attachment point not given here
IC50, IDO1 inhibition assay [2]: 871 nM

B3: Deprotected-Inh-Gly2-wyvay (other)
peptide: Inh-GG[dW][dY][dV][dA][dY]
modifications: triazole (positions not given here); not fully specified (residue 2, C-terminus); printed as Deprotected-Inh-Gly2-wyvay; reading uncertain; also: IDO1 inhibitor Inh on the Gly2 linker, ring closed by triazole between flanking Pra and Az4
IC50, IDO1 inhibition assay [3]: 1010 nM

B4: Inh-PEG6-wyry (other)
peptide: {Inh-PEG6′}-[Pra][dW][dY][dR][dY]-Az4
modifications: triazole N-C; numbers in words are those of the source; reading uncertain; also: Inh joined through PEG6 linker, printed as Inh-PEG6-wyry
Inhibition Recombinant IDO1 IC50 [4]: 338 nM
% inhibition at 8 µM, HeLa [5]: 47.8%
IC50, IDO1 inhibition assay [2]: 338 nM

B5: ww(F-Phe) (peptide)
chain: {Biotin-PEG3′}-[dW]-[dW]-[Phe(4-F)]
modifications: triazole (positions not given here); also: triazole-cyclised
EC50 [6]: 96 nM

B6: w(Ph-Tyr)(Me-Val)G(Me-Phe) (peptide)
peptide: [dW][Ph‑Tyr][Me‑Val]G[Me‑Phe]
modifications: not fully specified; printed as w(Ph-Tyr)(Me-Val)G(Me-Phe)
notes: Modified version of wyvay
EC50 [7]: 18 nM

B7: Inh-PEG8-wyry (other)
peptide: {Inh-PEG8′}-[Pra][dW][dY][dR][dY]-Az4
modifications: triazole N-C; numbers in words are those of the source; reading uncertain; also: Inh joined through PEG8 linker, printed as Inh-PEG8-wyry
IC50, IDO1 inhibition assay [2]: 3740 nM

Reference: patent publication US20200371101A1 (Regeneron, published 2020)
